Reference: PMC10347550, “Cyclic Ruthenium-Peptide Conjugates as Integrin-Targeting Phototherapeutic Prodrugs for the Treatment of Brain Tumors” (Journal of the American Chemical Society, 2023)

Assays:
[1] = system: MCF7 cells; assay: Cellular Ru uptake by ICP-MS; type: cell-based, human; settings: dark, 6 h, triplicate wells, ± SEM
Protocol: (§1) U87MG cells (6000), PC-3 cells (5000), and MCF7 cells (8000) were seeded in 96-well plates, each well containing 100 μL of Opti-MEM. After 24 h, 12.5 μM drugs dissolved in Opti-MEM were added to each well and the plates were incubated in a normoxic or hypoxic incubator for 6 h. After that, the drug-containing medium was removed from each well, which was washed with PBS buffer once. Then, cells were stained by Nuclear Blue (Invitrogen, R37605) for 30 min to stain all nuclei (2 drops/mL medium). After this, the dye was thereafter removed and replaced with fresh medium. The entire well was imaged with 10× objective magnification and 7 × 6 montage using epifluorescence on a Nikon TiE2000 widefield microscope with a perfect focus system and automated xy-stage. The cell number of every well was analyzed by counting the nuclei using Image-Pro Analyzer 7.0. Thereafter, the medium was removed and the cells were digested by adding 100 μL of 65% HNO3 for 30 min at room temperature. The cell lysates were transferred into a 96-deep well plate (Eppendorf, E951033502), followed by the addition of 0.9 mL of MilliQ water into each well, and the plate was then mixed well with a 1000 μL Eppendorf pipette.
(§2) The ruthenium concentration was measured in each sample by ICP-MS (NexION 2000, PerkinElmer), providing the metal content in each well in ppb. Combining the cell numbers and Ru uptake, averaging over technical triplicates, the ruthenium uptake values were finally expressed in μg Ru/million cells.

[2] = system: PC-3 cells; assay: Cellular Ru uptake by ICP-MS; type: cell-based, human; settings: dark, 6 h, triplicate wells, ± SEM
Protocol: as §1, §2

[3] = system: U87MG cells; assay: Cellular Ru uptake by ICP-MS; type: cell-based, human; settings: dark, 6 h, triplicate wells, ± SEM
Protocol: as §1, §2

[4] = system: U87MG cells; assay: Apopxin/Nuclear Green DCS1 double-staining cell death mode study; type: cell-based, human; settings: 20 μM, 24 h incubation, 1 h after green light (13.1 J/cm^2), flow cytometry
Protocol: After 24 h of incubation, one plate labeled light was irradiated for 20 min using 520 nm green light (13.1 J/cm^2), and then both plates were allowed to incubate further for 1, 2, 6, or 24 h in a normoxia incubator. After incubation, the cells were trypsinized, collected, and washed with cold PBS twice. […] Cells after staining were detected by flow cytometry (CytoFLEX flow cytometer) immediately. Control groups with only assay buffer, only buffer and Apopxin Deep Red Indicator, only buffer and Nuclear Green DCS1, and all three were included to be used for gating during data analysis. Parameters APC (638 nm excitation, 660/10 nm emission) and FITC (488 nm excitation, 525/40 nm emission) were used considering their similar excitation/emission wavelength with two detectors Apopxin Deep Red Indicator, Ex/Em = 630/660 nm (apoptosis), and Nuclear Green DCS1, Ex/Em = 490/520 nm (necrosis).

[5] = system: ITGAV knockdown U87MG cells (U87MG-kd); assay: Cellular Ru uptake by ICP-MS, 2 h; type: cell-based, human; settings: 10 μM, dark, normoxia, n = 3
Protocol: The uptake studies in U87MG and U87MG-kd cell lines were conducted as follows: 2 × 10^5 cells were cultured in 6-well plates for 24 h in Opti-MEM (2 mL), after which cells were incubated with Δ-[1]Cl2 or Δ-[3]Cl2 (10 μM) for 2 h, washed with cold PBS twice, harvested, concentrated in 200 μL of PBS, and counted using trypan blue and a cell counter (Bio-Rad). Finally, cell pellets were collected in 1.5 mL Eppendorf tubes after removing additional PBS by centrifuging at 500g; 0.25 mL of 65% HNO3 was then added to each tube, and all tubes were kept at room temperature (RT) overnight. The cell lysates were transferred to 15 mL centrifuge tubes (Biologix) and filled with 4.75 mL of MilliQ H2O.
as §2

[6] = Dark stability by UV-vis spectroscopy; type: physicochemical; settings: 24 h

Row | Substance | Ru accumulation ([1]; MCF7, hypoxia 1% O2, 12.5 µM) [µg Ru/million cells] | Ru accumulation ([1]; MCF7, normoxia 21% O2, 12.5 µM, listed as L-[1]Cl2) [µg Ru/million cells] | Ru accumulation ([2]; PC-3, hypoxia 1% O2, 12.5 µM, listed as L-[1]Cl2) [µg Ru/million cells] | Ru accumulation ([2]; PC-3, normoxia 21% O2, 12.5 µM, listed as L-[1]Cl2) [µg Ru/million cells] | Ru accumulation ([3]; hypoxia 1% O2, 12.5 µM, listed as L-[1]Cl2) [µg Ru/million cells] | Ru accumulation ([3]; normoxia 21% O2, 12.5 µM) [µg Ru/million cells] | cell death mode [4] | Ru accumulation ([1]; MCF7, normoxia 21% O2, 12.5 µM) [µg Ru/million cells] | Ru accumulation ([2]; PC-3, hypoxia 1% O2, 12.5 µM) [µg Ru/million cells] | Ru accumulation ([2]; PC-3, normoxia 21% O2, 12.5 µM) [µg Ru/million cells] | Ru accumulation ([3]; hypoxia 1% O2, 12.5 µM) [µg Ru/million cells] | uptake amount compared to U87MG-wt cells [5] | dark stability, absorbance spectra ([6]; 50 μM in Opti-MEM containing 2.5% FCS, UV-vis) | intensity of the UV-vis spectrum ([6]; 50 μM in Opti-MEM deprived of FCS)
1 | [Ru(Ph2phen)2(κ^S,κ^N-(Ac-MRGDH-NH2))]Cl2 (sidechain bridge or staple) [Λ-[1]Cl2] [cyclic ruthenium-peptide conjugate, Ac-MRGDH-NH2 coordinated via Met S and His N] | 0.31 ± 0.01 | 0.25 ± 0.01 | 0.68 ± 0.01 | 0.55 ± 0.03 | 0.84 ± 0.01 | 0.74 ± 0.01 | died mainly via necrosis |  |  |  |  |  |  | 
2 | [Ru(Ph2phen)2(κ^S,κ^N-(Ac-MRGDH-NH2))]Cl2 (sidechain bridge or staple) [Δ-[1]Cl2] [cyclic ruthenium-peptide conjugate, Ac-MRGDH-NH2 coordinated via Met S and His N] | 0.31 ± 0.01 |  |  |  |  | 0.73 ± 0.01 | died mainly via necrosis | 0.21 ± 0.01 | 0.63 ± 0.02 | 0.51 ± 0.01 | 0.78 ± 0.01 | significantly decreased | did not show any variation for 24 h | gradually decreased, suggesting precipitation
